Biological target: constitutively activated LFA-1 expressed at a high level on a Jurkat T-lymphocyte cell line (human) (UniProt P20701)
Assay: cell-based or functional assay

Sequence of constitutively activated LFA-1 expressed at a high level on a Jurkat T-lymphocyte cell line (human) (P20701 26-1170, chain 1 of 2): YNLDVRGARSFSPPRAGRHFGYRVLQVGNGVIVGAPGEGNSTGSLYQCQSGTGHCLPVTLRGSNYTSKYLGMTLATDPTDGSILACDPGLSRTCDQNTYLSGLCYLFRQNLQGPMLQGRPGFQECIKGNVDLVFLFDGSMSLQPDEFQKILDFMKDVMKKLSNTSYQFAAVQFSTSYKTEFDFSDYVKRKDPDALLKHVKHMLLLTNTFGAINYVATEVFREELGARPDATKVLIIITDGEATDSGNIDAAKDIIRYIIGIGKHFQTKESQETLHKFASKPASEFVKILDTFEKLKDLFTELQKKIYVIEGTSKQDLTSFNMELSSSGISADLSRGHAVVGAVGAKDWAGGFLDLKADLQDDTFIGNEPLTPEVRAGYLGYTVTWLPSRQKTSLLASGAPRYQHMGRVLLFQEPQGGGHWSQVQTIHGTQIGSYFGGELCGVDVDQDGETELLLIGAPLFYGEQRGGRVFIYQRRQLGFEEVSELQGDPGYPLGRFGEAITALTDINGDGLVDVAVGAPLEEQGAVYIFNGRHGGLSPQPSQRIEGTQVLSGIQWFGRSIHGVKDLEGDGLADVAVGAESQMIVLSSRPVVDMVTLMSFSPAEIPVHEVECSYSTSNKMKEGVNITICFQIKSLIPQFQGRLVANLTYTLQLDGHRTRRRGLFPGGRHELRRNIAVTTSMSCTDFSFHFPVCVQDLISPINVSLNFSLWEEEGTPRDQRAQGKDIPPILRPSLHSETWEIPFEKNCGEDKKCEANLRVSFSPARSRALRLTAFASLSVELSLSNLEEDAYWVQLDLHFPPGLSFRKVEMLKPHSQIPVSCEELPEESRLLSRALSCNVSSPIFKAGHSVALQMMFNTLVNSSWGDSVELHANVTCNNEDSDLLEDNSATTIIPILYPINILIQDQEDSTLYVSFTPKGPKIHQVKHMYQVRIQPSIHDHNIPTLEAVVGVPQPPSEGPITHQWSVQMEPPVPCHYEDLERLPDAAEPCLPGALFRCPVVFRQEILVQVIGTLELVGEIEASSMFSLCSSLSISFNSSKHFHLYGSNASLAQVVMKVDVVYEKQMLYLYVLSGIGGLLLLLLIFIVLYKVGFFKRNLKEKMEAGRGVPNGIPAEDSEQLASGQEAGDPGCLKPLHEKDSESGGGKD
Sequence of constitutively activated LFA-1 expressed at a high level on a Jurkat T-lymphocyte cell line (human) (P05107 23-769, chain 2 of 2, further chain): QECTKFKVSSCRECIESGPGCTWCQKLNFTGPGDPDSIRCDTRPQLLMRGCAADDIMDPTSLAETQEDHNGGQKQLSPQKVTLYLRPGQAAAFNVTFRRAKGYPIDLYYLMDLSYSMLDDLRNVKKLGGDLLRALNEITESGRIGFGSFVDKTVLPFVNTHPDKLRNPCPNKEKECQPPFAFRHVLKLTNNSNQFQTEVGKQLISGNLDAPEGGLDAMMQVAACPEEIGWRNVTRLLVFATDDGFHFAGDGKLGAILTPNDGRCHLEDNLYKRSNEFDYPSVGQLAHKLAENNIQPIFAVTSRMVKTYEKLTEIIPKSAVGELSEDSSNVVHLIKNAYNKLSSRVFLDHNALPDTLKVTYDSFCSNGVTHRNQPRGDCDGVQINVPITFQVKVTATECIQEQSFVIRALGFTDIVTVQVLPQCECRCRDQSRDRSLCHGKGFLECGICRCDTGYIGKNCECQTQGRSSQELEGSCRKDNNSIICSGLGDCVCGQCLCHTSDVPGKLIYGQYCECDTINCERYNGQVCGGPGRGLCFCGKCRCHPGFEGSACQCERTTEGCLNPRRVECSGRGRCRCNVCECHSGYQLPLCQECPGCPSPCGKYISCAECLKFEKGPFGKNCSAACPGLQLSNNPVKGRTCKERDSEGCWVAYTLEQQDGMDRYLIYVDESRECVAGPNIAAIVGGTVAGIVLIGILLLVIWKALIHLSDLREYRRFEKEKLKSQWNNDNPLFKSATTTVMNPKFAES

Q: For “Leukotoxin (LtxA) of Aggregatibacter actinomycetemcomitans strain NJ4500 (from UniProt P16462 1-1055)”, which sensitivity to LtxA-mediated toxicity is on record?
A: 10 times

Source: patent publication EP2488198B1
